According to EP4413993A1 (Dompe' Farmaceutici S.P.A., dated 2024):
Several values for one entry are separate records, joined by “and”; a condition that tells them apart may be missing. Equal values may be shown once.

Biological target: TrkB receptor on rat C6 glioma cells (rat, UniProt Q63604 32-821)
Assay: cell-based or functional assay

Chain of TrkB receptor on rat C6 glioma cells (Q63604 32-821): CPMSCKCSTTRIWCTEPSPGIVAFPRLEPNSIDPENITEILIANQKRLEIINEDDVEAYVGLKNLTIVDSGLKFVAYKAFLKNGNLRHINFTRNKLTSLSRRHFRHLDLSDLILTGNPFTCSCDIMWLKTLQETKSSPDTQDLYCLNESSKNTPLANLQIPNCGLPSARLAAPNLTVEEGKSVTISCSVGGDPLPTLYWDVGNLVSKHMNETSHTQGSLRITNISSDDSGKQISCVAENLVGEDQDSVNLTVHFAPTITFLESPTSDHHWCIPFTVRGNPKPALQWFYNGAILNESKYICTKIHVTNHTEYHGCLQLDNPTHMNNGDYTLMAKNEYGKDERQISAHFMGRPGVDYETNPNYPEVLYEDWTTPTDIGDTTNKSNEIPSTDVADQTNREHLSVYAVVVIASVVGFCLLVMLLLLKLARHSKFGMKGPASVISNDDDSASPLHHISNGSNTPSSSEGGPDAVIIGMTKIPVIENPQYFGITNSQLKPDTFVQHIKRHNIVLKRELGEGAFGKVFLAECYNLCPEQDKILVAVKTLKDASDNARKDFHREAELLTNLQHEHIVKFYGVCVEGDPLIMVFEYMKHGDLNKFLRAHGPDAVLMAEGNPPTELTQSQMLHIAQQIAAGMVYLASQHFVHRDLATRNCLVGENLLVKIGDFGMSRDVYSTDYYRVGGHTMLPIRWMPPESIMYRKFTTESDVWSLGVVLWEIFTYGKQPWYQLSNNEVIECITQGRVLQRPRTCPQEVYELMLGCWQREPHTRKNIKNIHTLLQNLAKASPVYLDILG

B1: recombinant human brain-derived neurotrophic factor (BDNF) (ligand)
chain: HSDPARRGELSVCDSISEWVTAADKKTAVDMSGGTVTVLEKVPVSKGQLKQYFYETKCNPMGYTKEGCRGIDKRHWNSQCRTTQSYVRALTMDSKKRIGWRFIRIDTSCVCTLTIKRGR
  EC50, concentration of rhBDNF required to induce 50% proliferation of C6 cells (MTS assay, 48h): ~3 µg/mL and ~0.11 µM
